Patent US20250206792

B1: YabT (GenBank: SPU13583.1) (SEQ ID NO: 5) (protein)
chain: MLNWTPKLQSLSTPFAKLSTAAITPTGPAIREATLQFEKYAQEGACWQMMNDALTSLACSLKPGTTIKGKWNGNTYTLRKQLGKGANGIVYLAETSDGHVALKVSDDSLSITSEVNVLKSFSKAQSVTMGPSFFDTDDAYIPSANTKVSFYAMEYIKGPLLLKYVSDKGAEWIPVLMIQLLSSLSVLHQQGWIFGDLKPDNLIVTGPPARIRCIDVGGTTKEGRAIKEYTEFYDRGYWGYGTRKAEPSYDLFAVAMIMINSVHKKEFKKTNQPKEQLRSLIEGNPLLQKYKKALFSALNGDYQSADEMKKDMLDAGQKAAQRKQPIKASPQPATRQRQQKPRQGKITKTRYTPKQKPAKSGGLFETTLIVISVLALYFAYIIFFLI
B2: PrkD (Bacillus subtilis 168 | BSU_02030) (SEQ ID NO: 7) (protein)
chain: MALKLLKKLLFDRPLKNGVILNHQYKIEECLGMGGYGLVYLCTDILAQTPYVLKQLRPTKAKKEKEKVRFQQEIKLLKNIHHPQIPGFIDEFIIDGQAYYVMQFIEGENIEELLFFRKQPFTELMALQLISQLLEIIEYLHDRLIFHSDIRTPNIIINDGRLCLIDFGLAKQLTPEEMEEIKVRKQDDFFDLGETLLFLLYSQYKGKKKKNGTWLEELTLTKEVTLLLKRLLGIEEEYQHTASIREDLNRAIQSVT
B3: PrkC (Bacillus subtilis) (SEQ ID NO: 8) (protein)
chain: MSGPVPSRARVYTDVNTHRPREYWDYESHVVEWGNQDDYQLVRKLGRGKYSEVFEAINITNNEKVVVKILKPVKKKKIKREIKILENLRGGPNIITLADIVKDPVSRTPALVFEHVNNTDFKQLYQTLTDYDIRFYMYEILKALDYCHSMGIMHRDVKPHNVMIDHEHRKLRLIDWGLAEFYHPGQEYNVRVASRYFKGPELLVDYQMYDYSLDMWSLGCMLASMIFRKEPFFHGHDNYDQLVRIAKVLGTEDLYDYIDKYNIELDPRFNDILGRHSRKRWERFVHSENQHLVSPEALDFLDKLLRYDHQSRLTAREAMEHPYFYTVVKDQARMGSSSMPGGSTPVSSANMMSGISSVPTPSPLGPLAGSPVIAAANPLGMPVPAAAGAQ
B4: PKNB1_Cgl2751 (Corynebacterium glutamicum) (SEQ ID NO: 9) (protein)
chain: MYEVLGVIAHGGMGWIYLANDRNVSGRIVVLKGMMAQSSVQDQGTAEAEREFLADITHPGIVKAYNFIDDPRVPGGFIVMEYVNGPSLKDRCKAQPDGVLRVDLAIGYILELLPAMDYLHQRGVVYNDLKPENVIATEDQVKLIDLGAVTGIGAFGYIYGTKGFQAPEVATHGPSISSDIFTIGRTLAALTMPLPVEDGVLAPGIPSPKNSPLLRRHLSFYRLLQRATADDPQHRFRNVSELRTQLYGVLREILAVRDGKQYPPQHSLFSPQRSTFGTKHLVF

Columns and labels:
[1] = biological target: T1, Bovine Alpha-s1-casein (SEQ ID NO: 1)
T1 chain: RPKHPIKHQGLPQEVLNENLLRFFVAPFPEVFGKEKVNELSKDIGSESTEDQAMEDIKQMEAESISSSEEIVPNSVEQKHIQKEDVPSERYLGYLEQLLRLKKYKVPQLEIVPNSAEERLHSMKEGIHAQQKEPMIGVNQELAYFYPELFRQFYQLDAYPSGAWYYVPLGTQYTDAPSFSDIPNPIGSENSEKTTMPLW

[2] = biological target: T2, Bovine Beta-casein (SEQ ID NO: 3)
T2 chain: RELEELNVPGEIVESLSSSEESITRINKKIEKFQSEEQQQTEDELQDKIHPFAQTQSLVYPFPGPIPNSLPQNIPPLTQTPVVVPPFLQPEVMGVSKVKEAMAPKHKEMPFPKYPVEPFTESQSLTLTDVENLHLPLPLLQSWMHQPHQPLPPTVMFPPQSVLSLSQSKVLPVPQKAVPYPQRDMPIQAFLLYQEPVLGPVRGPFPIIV

Protein	number of phosphorylated sites similar to native phosphorylation sites, MS [1]	number of sites phosphorylated, in vitro kinase reaction, MS [1]	phosphorylation at *S56 (native site), MS grade, in vitro kinase reaction [1]	phosphorylation at *S61 (native site), MS grade, in vitro kinase reaction [1]	phosphorylation at *S63 (native site), MS grade, in vitro kinase reaction [1]	phosphorylation at *S79 (native site), MS grade, in vitro kinase reaction [1]	phosphorylation at *S81 (native site), MS grade, in vitro kinase reaction [1]	phosphorylation at *S82 (native site), MS grade, in vitro kinase reaction [1]	phosphorylation at *S83 (native site), MS grade, in vitro kinase reaction [1]	phosphorylation at *S90 (native site), MS grade, in vitro kinase reaction [1]	phosphorylation at S103, MS grade, in vitro kinase reaction [1]	phosphorylation at S137, MS grade, in vitro kinase reaction [1]	number of phosphorylated sites similar to native phosphorylation sites, MS [2]	number of sites phosphorylated, in vitro kinase reaction, MS [2]	phosphorylation at *S30 (native site), MS grade, in vitro kinase reaction [2]	phosphorylation at *S32 (native site), MS grade, in vitro kinase reaction [2]	phosphorylation at *S50 (native site), MS grade, in vitro kinase reaction [2]	phosphorylation at T39, MS grade, in vitro kinase reaction [2]	phosphorylation at *S130 (native site), MS grade, in vitro kinase reaction [1]	phosphorylation at Y159, MS grade, in vitro kinase reaction [1]	also measured
B1	with 9 and 8 sites showing similarity to native phosphorylation sites	PrkD and YabT phosphorylated 13 and 10 sites, respectively	+++	++	++	+++	+++	+++	+++	++	+	+	with 3 sites showing similarity to native phosphorylation sites	PrkD and YabT phosphorylated 5 sites each	++	++	++	++			phosphorylation at T56, MS grade, in vitro kinase reaction [2]: +
B2	with 9 and 8 sites showing similarity to native phosphorylation sites	PrkD and YabT phosphorylated 13 and 10 sites, respectively	++	+	+	+	+	+	+	+	+	+	with 3 sites showing similarity to native phosphorylation sites	PrkD and YabT phosphorylated 5 sites each	+	+	+	+	+++	+	phosphorylation at Y161, MS grade, in vitro kinase reaction [1]: +; phosphorylation at S337, MS grade, in vitro kinase reaction [2]: +
B3		PKNB and PrkC phosphorylated 6 sites in αs1-casein each	+								+	+		PKNB and PrkC phosphorylated 2 sites in β-casein each	+			++	+	+	number of phosphorylated sites similar to native bovine phosphorylation sites, MS [1]: 2 sites; phosphorylation at Y109, MS grade, in vitro kinase reaction [1]: +; number of phosphorylated sites similar to native bovine phosphorylation sites, MS [2]: 1 sites
B4		PKNB and PrkC phosphorylated 6 sites in αs1-casein each									+	+		PKNB and PrkC phosphorylated 2 sites in β-casein each	+			+++	+	+	number of phosphorylated sites similar to native bovine phosphorylation sites, MS [1]: 1 sites; phosphorylation at Y109, MS grade, in vitro kinase reaction [1]: +; phosphorylation at Y188, MS grade, in vitro kinase reaction [1]: +; number of phosphorylated sites similar to native bovine phosphorylation sites, MS [2]: 1 sites
